Results as given in patent publication US20100061996A1 (Genentech, published 2010).

Experiments:
[1] = molecular target: T1, matriptase protease domain (UniProt Q9Y5Y6 615-855, limits assumed); assay: enzyme inhibition, 0.5 nM matriptase, chromogenic substrate S2765; apparent Ki (Ki*) from tight-binding fit
T1 construct: domain: protease domain
T1 sequence (looked up): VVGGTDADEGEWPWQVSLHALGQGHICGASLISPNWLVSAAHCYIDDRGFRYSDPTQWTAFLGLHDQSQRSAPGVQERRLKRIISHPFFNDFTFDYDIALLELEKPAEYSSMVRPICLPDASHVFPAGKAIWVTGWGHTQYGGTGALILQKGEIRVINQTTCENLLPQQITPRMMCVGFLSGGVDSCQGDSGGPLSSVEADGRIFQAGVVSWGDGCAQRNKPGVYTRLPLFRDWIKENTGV
Description: (§1) After substrate addition, the linear rates of the increase in absorbance at 405 nm was measured on a kinetic microplate reader (Molecular Devices, Sunnyvale, Calif.).

[2] = molecular target: T2, soluble His-tagged hepsin comprising the entire extracellular domain of human hepsin (Arg45-Leu417) (human, UniProt P05981 45-417); assay: enzyme inhibition, 0.5 nM hepsin, chromogenic substrate S2366; apparent Ki (Ki*) from tight-binding fit
T2 construct: range 45-417; also called soluble hepsin; recombinant soluble hepsin; not shown: His tag
Description: as §1

T2 sequence (P05981 45-417 limits assumed): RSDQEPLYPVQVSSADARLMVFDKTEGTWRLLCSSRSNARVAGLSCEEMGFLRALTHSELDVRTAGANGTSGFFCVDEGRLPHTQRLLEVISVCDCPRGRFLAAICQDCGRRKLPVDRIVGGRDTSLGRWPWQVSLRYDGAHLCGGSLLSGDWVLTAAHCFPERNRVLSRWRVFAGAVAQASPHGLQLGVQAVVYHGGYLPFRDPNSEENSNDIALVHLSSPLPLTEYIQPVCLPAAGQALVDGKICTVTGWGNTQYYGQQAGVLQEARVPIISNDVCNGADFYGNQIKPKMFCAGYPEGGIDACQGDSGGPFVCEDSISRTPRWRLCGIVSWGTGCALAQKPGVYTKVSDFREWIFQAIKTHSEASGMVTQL

- Ki [1]: 0.85 nM
- Ki [2]: 0.26 nM
B1: soluble HAI-2 (hepatocyte growth factor activator inhibitor-2) (other, UniProt O43291 28-197, looked up)
chain: ADRERSIHDFCLVSKVVGRCRASMPRWWYNVTDGSCQLFVYGGCDGNSNNYLTKEECLKKCATVTENATGDLATSRNAADSSVPSAPRRQDSEDHSSDMFNYEEYCTANAVTGPCRASFPRWYFDVERNSCNNFIYGGCRGNKNSYRSEEACMLRCFRQQENPPLPLGSK
